US20090068174A1, “THERAPEUTIC ALKALINE PROTEASE COMPOSITIONS AND USE IN FACILITATING THE TRANSPORT OF AGENTS ACROSS THE GASTROINTESTINAL MUCOSAL LINING” (Kansas University Medical Center Research Institute, Inc., priority 2007, published 2009)

T1: mouse recombinant IFN-γ (Mus musculus, UniProt P01580)
T1 sequence (P01580 23-155): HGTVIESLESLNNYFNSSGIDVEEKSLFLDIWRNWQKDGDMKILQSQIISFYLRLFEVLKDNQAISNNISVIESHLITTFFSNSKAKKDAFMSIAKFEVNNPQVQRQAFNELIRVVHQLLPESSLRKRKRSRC

T2: human IFN-γ (Homo sapiens, UniProt P01579)
T2 sequence (P01579 24-166): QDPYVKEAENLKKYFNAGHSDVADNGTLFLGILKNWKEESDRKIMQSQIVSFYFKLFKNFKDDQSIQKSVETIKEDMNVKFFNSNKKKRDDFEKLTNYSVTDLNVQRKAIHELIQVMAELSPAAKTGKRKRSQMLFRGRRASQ


What was measured:
[1] = tested on: Salmon protamine; experiment: Hydrolysis of salmon protamine sulfate (ninhydrin assay); format: biochemical; conditions: 20 mM Tris-HCl, pH 7 or 8, 30 min at 37° C.
Description: Specific activity of the purified enzymes was determined by measuring hydrolysis of protamine sulfate and D-val-leu-lys-pNA. For the former, enzyme-substrate mixtures were prepared in 20 mM Tris-HCl, pH 7 or 8, and incubated for 30 min at 37° C. After precipitation with 14% trichloroacetic acid and removal of precipitated protein by centrifugation, the reaction mixtures were diluted in 500 mM sodium citrate buffer, pH 5, combined with 2% ninhydrin and boiled for 30 min. After dilution in 50% isopropanol, absorbance was measured at 570 nm wavelength, and results were referenced to leucine as a standard. Hydrolysis of D-val-leu-lys-pNA in 20 mM Tris-HCl buffer, pH 7, was determined by measuring absorbance at 405 nm wavelength every 10 sec over 10 min and calculating the change in absorbance (mOD units) per min per μg protein.
Protamine sulfate from salmon (Sigma, St. Louis, Mo.): 1% (10 mg/ml) solution in reaction buffer. Fushima et al use 2% and denature the protein by boiling for 30 min in 100 mM phosphate buffer, pH 7.0. […]
Procedure • 1. […] Read Absorbance at 570 nm (purple color) and calculate nanomoles by reference to a standard curve prepared with leucine. […] Activity of enzyme is expressed as nanomoles of leucine equivalents released per milligram of protein (endpoint assay) or nanomoles of leucine equivalents/min/μg protein (kinetic assay). • 10. […]

[2] = Hydrolysis of D-val-leu-lys-pNA (kinetic absorbance assay); format: biochemical; conditions: 20 mM Tris-HCl buffer, pH 7, absorbance at 405 nm
Description: Specific activity of the purified enzymes was determined by measuring hydrolysis of protamine sulfate and D-val-leu-lys-pNA. For the former, enzyme-substrate mixtures were prepared in 20 mM Tris-HCl, pH 7 or 8, and incubated for 30 min at 37° C. […] Hydrolysis of D-val-leu-lys-pNA in 20 mM Tris-HCl buffer, pH 7, was determined by measuring absorbance at 405 nm wavelength every 10 sec over 10 min and calculating the change in absorbance (mOD units) per min per μg protein.

[3] = biological target: T1, mouse recombinant IFN-γ; experiment: Bioactivity of protease-treated mouse IFN-γ (NO production by C2C12 cells); format: cell-based
Description: Effects of three purified A. oryzae proteases on the bioactivity of mouse IFN-γ: (A) protease powder prepared according to Example 1 (preparation); (B) alkaline protease; (C) 26 kDa protease; and (D) deuterolysin. 50 ng quantities of mouse recombinant IFN-γ were incubated for 24 hours at 37° C. with either buffer or 2.5-10 ng of the indicated protease: (∘) Buffer; (▴) 2.5 ng; ([…]) 5 ng; (▪) 10 ng. IFN-γ bioactivity was determined as conduction of NO production by C2C12 cells.
To evaluate the specificity of this effect, the three Aspergillus oryzae proteases were tested for their ability to inactivate mouse IFN-γ, and a different pattern was seen. […] This was an unexpected finding given the ability of alkaline protease to cause partial proteolysis of IFN-γ.

[4] = biological target: T2, human IFN-γ; experiment: Fc receptor-inducing activity of protease-treated human IFN-γ on U937 cells; format: cell-based; parameters: key: +: Indicates that the protease inactivated the cytokine; ^a: Cleavage of the cytokine occurred without inactivation; conditions: Table 7 summary
Description: (§1) Effects of the purified A. oryzae proteases on the Fc receptor-inducing activity of human IFN-γ. Samples of the cytokine were first treated with the indicated Pseudomonas or fungal proteases: Elastase (∘); Preparation ([…]); Alkaline Protease (□); Deuterolysin (▪); and 26 kDa Protease (Δ). The treated samples were added to human promyelocytic U937 cells to induce expression of Fc receptors for IgG, which was detected by flow cytometry. The results are plotted either as a decrease in of mean channel fluorescence (A) or a decrease in % positive cells (B) plotted against increasing protease amounts.
as §1, with “Samples” for “Effects of the purified A. oryzae proteases on the Fc receptor-inducing activity of human IFN-γ. Samples”

Molecule	Specific activity, Salmon protamine [1]	Specific activity, Val-leu-lys-pNA [2] [mOD/min/μg protein]	Effect on bioactivity of mouse IFN-γ [3]	Inactivation of Human IFN-γ [4]
26 kDa Protease: A. oryzae protease cloned recently by Novozyme, labeled the 26 kDa protease, SEQ ID NO: 3 (protein, listed as Aspergillus oryzae) HASADAWASSKAISSTSSPSSFKMRFISVSSLLLALAPALNAVPVEVAGSAQGLDVTLSQVGNTRIKAWKNTGSEDVTFVHLNFFKDAAPVQKVSLFRNATEVQFQGIKQRLITEGLSDDALTTLAPGATIEDEFDIASTSDLSEGGTITINSNGLVPITTDNKVTGYIPFTSNELSIDVDAAEAASVTQAVKILERRTKVTSCSGSRLSALQTALRNTVSLARAAATAAQSGSSSRFQEYFKTTSSSTRSTVAARLNAVANEAASTSSGSTTYYCSDVYGYCSSNVLAYTLPSYNIIANCDLYYSYLPALTSTCHAQDQATTTLHEFTHAPGVYSPGTDDLGYGYSAATALSASQALLNADTYALFANAVNLNC	679 nmoles Leucine/30 min./μg protein	2.1	primarily associated with the 26 kDa protease	
Alkaline Protease: Aspergillus oryzae alkaline protease (oryzin), SEQ ID NO: 2, purified from the protease powder of Example 1 (protein, listed as Aspergillus oryzae) MQSIKRTLLLLGAILPAVLGAPVQETRRAAEKLPGKYIVTFKPGIDEAKIQEHTTWATNIHQRSLERRGATGGDLPVGIERNYKINKFAAYAGSFDDATIEEIRKNEDVAYVEEDQIYYLDGLTTQKSAPWGLGSISHKGQQSTDYIYDTSAGEGTYAYVVDSGVNVDHEEFEGRASKAYNAAGGQHVDSIGHGTHVSGTIAGKTYGIAKKASILSVKVFQGESSSTSVILDGFNWAANDIVSKKRTSKAAINMSLGGGYSKAFNDAVENAFEQGVLSVVAAGNENSDAGQTSPASAPDAITVAAIQKSNNRASFSNFGKVVDVFAPGQDILSAWIGSSSATNTISGTSMATPHIVGLSLYLAALENLDGPAAVTKRIKELATKDWKDVKGSPNLLAYNGNA	951 nmoles Leucine/30 min./μg protein	116.7	did not significantly affect the activity of mouse IFN-γ	+
